Measured values taken from article PMC4224745, “Modulation, Bioinformatic Screening, and Assessment of Small Molecular Peptides Targeting the Vascular Endothelial Growth Factor Receptor” (Cell Biochemistry and Biophysics, 2014).
No end group written: not given here.

Assays:
VEGFR = assay: In vitro receptor competition binding assay with 125I-VEGF165 on A549 cells; set-up: species or system human; settings: for IC50: A549 cells, peptide 0–6,500 nmol/L, 30 min at 4 °C, then 125I-VEGF165 0.37 μg/L for 2 h at 4 °C, γ-counter, duplicate wells, read-out: IC50, competitive VEGFR binding with 125I-VEGF; for Fold increase in affinity for VEGFR relative to VEGF125–136: from the IC50 values of the 125I-VEGF competition on A549 cells
Description: A549 cells were cultured in 24-well culture plates at 3 × 10^4 cells/well in duplicate for each treatment. Cultures were maintained at 37 °C in a 5 % CO2 incubator. After 24 h, the culture supernatant was discarded, and cells were washed in PBS, followed by the addition of serum-free culture medium (Hyclone, Logan, UT) before performing an in vitro competitive-binding assay. To each well, VEGF125–136 or optimized peptides were added at the following concentrations: 0, 1.3, 6.5, 32.5, 65, 650, and 6,500 nmol/L. After a 30-min incubation period at 4 °C, 1.85 kBq ^125I-VEGF165 (PerkinElmer,Boston, MA) at a final concentration of 0.37 μg/L was added to each well, and the plates were further incubated for another 2 h at 4 °C. The culture supernatant was discarded, and the cells were washed twice with pre-cooled (4 °C) PBS containing 0.1 % BSA to remove unbound ^125I-VEGF165. The cells were then trypsin digested and quickly filtered through glass fiber filter paper using a multi-channel microfluidic device. Radioactive counts (cpm) on the filter paper were determined using a γ-counter (Chongqing Optical & Electrical Instrument). Peptide competition binding curves were plotted, and IC50 values for each peptide were calculated using SPSS13.0 statistics software.

A549 cells = assay: Fluorescence microscopy of rhodamine-conjugated peptides binding to A549 cells; type: cell-based, human; settings: rhodamine-conjugated peptides 45 µmol/L, fixed A549 cells, 2 h at 4 °C (method) or 6 h (results)
Description: The highest affinity peptides, NO.15 (QKRKRKKSRKKH) and NO.17 (RKRKRKKSRYIVLS), were conjugated with a fluorochrome, and fluorescence microscopy was used to observe binding to A549 cells as follows. A549 cells were plated on coverslips and grown overnight. The cells were then washed three times with PBS and fixed with 4 % paraformaldehyde for 15 min at room temperature. The cells were incubated at 37 °C for 30 min with 2 % BSA to block nonspecific binding, and subsequently washed three times with PBS. Rhodamine-conjugated peptides (45 µmol/L) were added and incubated with the cells for 2 h at 4 °C. After three washes with PBS, fluorescence microscopy (maximum absorption wavelength of 552 nm) was used to observe cellular staining. Unconjugated rhodamine was used as staining control.

[1] = target: vascular endothelial growth factor receptor (VEGFR) (human (endogenous in A549), UniProt P17948 27-1338); assay: radioligand binding; competition on A549 cells in 24-well plates, serum-free medium: peptide at 0-6,500 nmol/L for 30 min at 4 °C, then 1.85 kBq 125I-VEGF165 (0.37 μg/L) for 2 h at 4 °C; washed, trypsinised, filtered, γ-counted; IC50 by SPSS13.0; settings: one partner purified
Chain of vascular endothelial growth factor receptor (VEGFR) (P17948 27-1338): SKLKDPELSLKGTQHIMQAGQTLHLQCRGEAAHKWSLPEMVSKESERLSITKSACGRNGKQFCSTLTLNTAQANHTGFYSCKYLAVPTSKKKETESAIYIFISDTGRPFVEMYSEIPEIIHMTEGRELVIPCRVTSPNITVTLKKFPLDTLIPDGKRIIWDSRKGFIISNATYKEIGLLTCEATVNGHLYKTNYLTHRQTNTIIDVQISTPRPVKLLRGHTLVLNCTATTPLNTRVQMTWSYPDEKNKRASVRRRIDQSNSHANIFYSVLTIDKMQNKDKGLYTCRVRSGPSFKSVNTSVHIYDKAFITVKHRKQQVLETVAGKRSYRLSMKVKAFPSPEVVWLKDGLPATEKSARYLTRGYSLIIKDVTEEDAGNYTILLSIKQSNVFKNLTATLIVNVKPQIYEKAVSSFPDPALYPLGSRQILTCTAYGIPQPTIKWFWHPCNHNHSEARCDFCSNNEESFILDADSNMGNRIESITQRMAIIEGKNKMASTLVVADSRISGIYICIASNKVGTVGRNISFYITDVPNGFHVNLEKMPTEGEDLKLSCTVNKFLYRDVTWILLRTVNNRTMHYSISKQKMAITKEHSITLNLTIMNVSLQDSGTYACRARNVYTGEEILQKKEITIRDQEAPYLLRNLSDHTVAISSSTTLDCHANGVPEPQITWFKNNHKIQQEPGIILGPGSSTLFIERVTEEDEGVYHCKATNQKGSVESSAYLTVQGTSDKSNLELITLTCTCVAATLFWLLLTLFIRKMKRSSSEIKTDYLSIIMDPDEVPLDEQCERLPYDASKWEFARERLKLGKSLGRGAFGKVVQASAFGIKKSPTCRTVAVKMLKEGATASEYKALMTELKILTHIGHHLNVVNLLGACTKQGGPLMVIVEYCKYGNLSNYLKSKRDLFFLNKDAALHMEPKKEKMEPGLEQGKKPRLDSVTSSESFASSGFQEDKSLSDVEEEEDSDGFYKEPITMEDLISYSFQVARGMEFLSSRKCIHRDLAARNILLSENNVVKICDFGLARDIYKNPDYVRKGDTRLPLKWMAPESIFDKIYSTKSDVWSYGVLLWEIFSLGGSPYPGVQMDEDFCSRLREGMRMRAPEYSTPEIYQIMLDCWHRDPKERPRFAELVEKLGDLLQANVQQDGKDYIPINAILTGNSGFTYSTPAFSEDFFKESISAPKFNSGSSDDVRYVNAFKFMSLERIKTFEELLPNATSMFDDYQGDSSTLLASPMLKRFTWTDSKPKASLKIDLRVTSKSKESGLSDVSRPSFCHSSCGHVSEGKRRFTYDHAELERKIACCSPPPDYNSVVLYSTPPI

Row | Molecule | IC50 [1] | further results
1 | RKRKRKKSRYIVLS [compound 17] | – | IC50 (VEGFR): 185 ± 14 nM; Fold increase in affinity for VEGFR relative to VEGF125–136 (VEGFR): 2.5 fold; Binding sites / fluorescent staining on A549 cells (A549 cells): plasma membrane and perinuclear cytoplasm
2 | QKRKRKKSRKKH [compound 15] | – | IC50 (VEGFR): 80 ± 7 nM; Fold increase in affinity for VEGFR relative to VEGF125–136 (VEGFR; listed as QKRKRKKSRKKH): 6 fold and ≈ 6 fold; Binding sites / fluorescent staining on A549 cells (A549 cells): plasma membrane and perinuclear cytoplasm
3 | rhodamine [unconjugated rhodamine, reference compound] | – | Binding sites / fluorescent staining on A549 cells (A549 cells): did not result significant levels of fluorescent staining
4 | QKRKRKKSRKKH (also called NO.15) | 80 ± 7 nM | –
5 | RKRKRKKSRYIVLS (also called NO.17) | 185 ± 14 nM | –
6 | QFRKRKKSRYLS | 694 ± 29 nM | –
7 | QFRKRKKSRYKH | 252 ± 16 nM | –
8 | QFRKRKKSRYPK | 273 ± 19 nM | –
9 | IVFKRKRKKSRYLS | 637 ± 25 nM | –
10 | QFRKRKKSRYKF | 323 ± 17 nM | –
11 | QKRKRKKSRYPLS | 542 ± 16 nM | –
12 | QKRKRKKSRYKK | 571 ± 40 nM | –
13 | QFRKRKKSRYPS | 4210 ± 76 nM | –
14 | RKRKRKKSRKKH | 283 ± 9 nM | –
15 | QKRKRKKSRYPK | 602 ± 19 nM | –
16 | QKRKRKKSRYKS (also called Control) [VEGF_(125–136)] | 464 ± 12 nM | –
17 | QFRKRKKSRWKS | 92 ± 9 nM | –
18 | QFRKRKKSRYKS | 665 ± 38 nM | –
19 | QHKRKRKKSRIVL | 424 ± 37 nM | –
20 | KKRKRKKSRKRK | 315 ± 11 nM | –
21 | FFRKRKKSRYKS | 188 ± 25 nM | –
22 | KFRKRKKSRYIV | 273 ± 33 nM | –
23 | QKRKRKKSRYRK | 405 ± 20 nM | –
24 | QKRKRKKSRYKY | 280 ± 13 nM | –
